Patent US20220259306A1 (SHANGHAI HYAMAB BIOTECH, published 2022)

Legend:
[1] = molecular target: T1, human NKG2A/CD94 on the cell surface (CHOk1-hNKG2A/CD94 stable cell line) (human, UniProt P26715 1-233; Q13241 1-179); assay: FACS blocking assay: HLA-E binding to NKG2A/CD94 cells in the presence of the antibody
T1 construct: whole, on cells; 93 and 94 are nucleic acids; also called human NKG2A on the cell surface; NKG2A/CD94 cells

[2] = molecular target: T2, monkey NKG2A/CD94 on the cell surface (CHOk1-cNKG2A/CD94 stable cell line) (macaque, UniProt Q9MZJ3 1-233; Q9MZK9 1-179); assay: FACS on CHOK1-cNKG2A/CD94 cells, Alexa 488 secondary antibody
T2 construct: also called macaque NKG2A; cyno NKG2A
T2 sequence (Q9MZJ3 other isoform, or with tags, fused parts or gaps, chain 1 of 2): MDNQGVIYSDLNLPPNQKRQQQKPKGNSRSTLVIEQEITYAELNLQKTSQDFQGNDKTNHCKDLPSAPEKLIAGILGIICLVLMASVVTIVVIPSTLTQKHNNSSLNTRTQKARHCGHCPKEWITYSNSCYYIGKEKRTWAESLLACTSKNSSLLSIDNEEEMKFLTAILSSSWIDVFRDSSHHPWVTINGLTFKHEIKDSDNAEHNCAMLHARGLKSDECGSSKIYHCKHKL
T2 sequence (Q9MZK9 whole entry, chain 2 of 2): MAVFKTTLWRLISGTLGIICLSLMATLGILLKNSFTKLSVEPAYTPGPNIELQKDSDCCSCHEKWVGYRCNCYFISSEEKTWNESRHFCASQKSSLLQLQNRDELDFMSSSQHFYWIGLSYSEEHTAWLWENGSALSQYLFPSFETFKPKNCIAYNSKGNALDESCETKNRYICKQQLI
From the text: The pCHO1.0 plasmid containing the nucleotide sequence encoding the full-length amino acid sequence of human-derived NKG2A/CD94 as described in step (2) of Example 1 was transfected into the CHOK1 cell line to obtain a CHOK1 stable cell line containing human NKG2A and CD94 (here referred to as CHOk1-hNKG2A/CD94 stable cell line), the pCHO1.0 plasmid carrying the monkey-derived NKG2A and CD94 full-length genes (the preparation method is the same as the preparation method of pCpC vector with human IgG Fc fragment (hFc) in step (1) “Preparation of immunogen A” in Example 1. The CHOK1 cell line was transfected to obtain the CHOK1 stable cell line containing monkey NKG2A/CD94 (here referred to as the CHOk1-cNKG2A/CD94 stable cell line), the CHOK1-hNKG2C/CD94 stable cell line was prepared with the same method. CHOk1-hNKG2A/CD94 stable cell line, CHOk1-cNKG2A/CD94 stable cell line and CHOK1-hNKG2C/CD94 stable cell line were expanded to 90% confluence in T-75 cell culture flasks, aspirating the medium, washed twice with PBS buffer (purchased from Invitrogen), then treating and collecting the cells with an enzyme-free cell dissociation solution (Versene solution, purchased from Life technology). Washing the cells twice with PBS buffer, after counting the cells, diluting the cells with PBS buffer to 2×10⁶ cells per milliliter, adding 1% goat serum blocking solution, the percentage was the mass percentage, incubated on ice for 30 minutes, and then washed twice with PBS buffer by centrifugation. Suspending the collected cells with FACS buffer (PBS+1%BSA, the percentage was the mass percentage) to 2×10⁶ cells/mL, adding it to 96-wells FACS reaction plate at 100 microliters per well, and adding 100 microliters per well of the purified NKG2A antibody test sample obtained in Example 2, incubated on ice for 2 hours. Washed twice with FACS buffer by centrifugation, and adding 100 microliters of fluorescent (Alexa 488) labeled secondary antibody (purchased from Invitrogen) per well, incubated on ice for 1 hour. Washed 3 times by centrifugation with FACS buffer, then suspending the cells with 100 μl FACS buffer, and using FACS (FACS Calibur, purchased from BD) to detect and analyze the results.

[3] = molecular target: T1, human NKG2A/CD94 on the cell surface …; assay: FACS blocking assay: HLA-E-PE binding to CHOk1-hNKG2A/CD94 cells in the presence of the antibody
[4] = molecular target: T1, human NKG2A/CD94 on the cell surface …; assay: FACS on CHOK1-hNKG2A/CD94 cells, Alexa 488 secondary antibody
[5] = molecular target: T3, hFc-tagged NKG2A/CD94 protein (NKG2A/CD94-hFc), immunogen A (human, UniProt P26715 94-233; Q13241 32-179, biotin-labeled in the Octet assays (site not stated)); assay: BLI (Octet red96), biotinylated immunogen A on streptavidin sensor, antibody in solution
T3 construct: Heterodimer of the extracellular domains of NKG2A and CD94, each with hFc; also called human-derived NKG2A/CD94-ECD-Fc; hNKG2A/CD94-ECD-Fc; not shown: human IgG Fc fragment (hFc) of the pCpC vector
T3 sequence (P26715 94-233 limits assumed, chain 1 of 2): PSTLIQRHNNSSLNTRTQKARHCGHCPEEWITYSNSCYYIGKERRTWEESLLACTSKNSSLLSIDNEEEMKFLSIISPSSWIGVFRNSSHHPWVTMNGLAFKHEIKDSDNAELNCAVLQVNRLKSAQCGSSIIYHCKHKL
T3 sequence (Q13241 32-179 limits assumed, chain 2 of 2): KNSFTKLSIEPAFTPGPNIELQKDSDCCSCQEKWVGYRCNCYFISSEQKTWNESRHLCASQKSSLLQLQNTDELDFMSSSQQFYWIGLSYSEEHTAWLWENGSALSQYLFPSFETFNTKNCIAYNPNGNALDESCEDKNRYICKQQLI
From the text: (§1) An Octet red96 instrument (purchased from Fortiebio) was used to determine the affinity constant. The specific operations and methods are based on the instrument manual and the detailed methods provided by the manufacturer. Specifically: using a streptavidin sensor (SA sensor, purchased from Fortiebio) for affinity determination.

[6] = molecular target: T3, hFc-tagged NKG2A/CD94 protein …; assay: BLI (Octet), biotinylated HNKG2A/CD94-ECD-Fc on streptavidin sensor, method of Example 5B
From the text: as §1

NKG2E protein = molecular target: T4, NKG2E protein (human, UniProt Q07444 94-240, limits assumed); assay: ELISA on NKG2E protein
T4 construct: construct and source not described
T4 sequence (Q07444 94-240 limits assumed): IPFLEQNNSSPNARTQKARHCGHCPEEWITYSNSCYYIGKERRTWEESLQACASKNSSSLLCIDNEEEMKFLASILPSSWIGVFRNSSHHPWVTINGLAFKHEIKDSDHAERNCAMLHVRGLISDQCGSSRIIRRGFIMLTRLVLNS

[7] = molecular target: T2, monkey NKG2A/CD94 on the cell surface …; assay: FACS on CHOK1-cNKG2A/CD94 cells
[8] = molecular target: T2, monkey NKG2A/CD94 on the cell surface …; assay: FACS on CHOK1-cNKG2A/CD94 cells; remark: listed apart in the source
[9] = molecular target: T2, monkey NKG2A/CD94 on the cell surface …; assay: FACS of scFv on cells with macaque NKG2A (cell line not given)
[10] = molecular target: T3, hFc-tagged NKG2A/CD94 protein …; assay: ELISA of scFv supernatant, selection threshold

B1: Tab1 (Z270) (antibody, V domains shown)
VH: EVQLVESGGGLVKPGGSLRLSCAASGFTFSSHSMNWVRQAPGKGLEWVSAISSSSSYIYYADSVKGRFTISRDNAKNSLYLQMNSLRAEDTAVYYCAREEWGLPFDYWGQGTLVTVSS
VL: AIQLTQSPSSLSASVGDRVTITCRASQGISSALAWYQQKPGKAPKLLIYDASSLKSGVPSRFSGSGSGTDFTLTISSLQPEDFATYYCQQFNSYPLTFGQGTRLEIK
- IC50 (read off the curve) [1]: ~1 nM
- EC50 (read off the curve) [2]: ~2 nM
- IC50 (read off the curve) [3]: ~0.7 nM
- EC50 (read off the curve) [4]: ~0.4 nM
- Kd [5]: 0.142 nM
- koff [5]: 0.000189 s⁻¹
- kon [5]: 1.33e+06 M⁻¹ s⁻¹
- Kd [6]: 0.182 nM
- koff [6]: 0.00162 s⁻¹
- kon [6]: 8.87e+06 M⁻¹ s⁻¹

B2: Mab031 (antibody, V domains shown)
VH: EVQLQQSVAELVRPGASVRLSCTGSGFNIQNTYIHWVKQRPEQGLEWIGRIDPANGDTKYAPKFQGKATITADTSSNTAYLQLSSLTSEDTAIYYCTRYGNYLYYYSLDYWGQGTSVTVSS
VL: DIVMTQAAPSVPVTPGESVSISCRSSKSLLHSNGNTYLYWFLQRPGQSPQLLIYRMSNLASGVPDRFSGSGSGTAFTLRISRVEAEDMGVYYCMQHLEYPYTFGGGTKLEIK
- EC50 (read off the curve) [2]: ~1 nM
- binding result (NKG2E protein): no binding (tested: 66.67 nM)
- Kd [5]: 0.0181 nM
- koff [5]: 1.84e-05 s⁻¹
- kon [5]: 1.02e+06 M⁻¹ s⁻¹

B3: Mab032 (antibody, V domains shown)
VH: EVQLQQSVAELVRPGASVRLSCTGSGFNIENTYMHWLKQRPEQGLEWIGRIDPADGDTQYAPKFQGKATITTDTSSNTAYLQLSSLTSEDTAIYYCARYGNYLFYYSMDYWGQGTSVTVSS
VL: DIVMTQAAPSVPVTPGESVSISCRSSKSLLHSNGNTYLYWFLQRPGQSPQLLIYRMSNLASGVPDRFSGSGSATAFTLRISRVEAEDVGIYYCMQHLEYPYTFGGGTKLEIK
- EC50 (read off the curve) [2]: ~1 nM
- binding result (NKG2E protein): no binding (tested: 66.67 nM)
- Kd [5]: 0.0239 nM
- koff [5]: 2.45e-05 s⁻¹
- kon [5]: 1.03e+06 M⁻¹ s⁻¹

B4: Mab033 (antibody, V domains shown)
VH: EVQLQQSVAEFVRPGASVRLSCTASGFNIENTYIHWLKQRPEQGLEWIGRIDPANGDTQYDPKFQGKATLTAATSSNTAYLQLSGLTSEDTAIYYCTRYGDYLFYYSLKYWGQGTSVTVSS
VL: DIVMTQAAPSVSVTPGESVSISCRSSKSLLHSNGNTYLYWFLQRPGQSPQLLIYRMSNLASGVPDRFSGSGSGTAFTLRISRVEAEDVGVYYCMQHLESPYTFGGGTKLEIK
- EC50 (read off the curve) [2]: ~1 nM
- binding result (NKG2E protein): no binding (tested: 66.67 nM)
- Kd [5]: 0.0202 nM
- koff [5]: 2.26e-05 s⁻¹
- kon [5]: 1.12e+06 M⁻¹ s⁻¹

B5: Mpb416 (antibody, V domains shown)
VH: QVQLQQSVAELVRPGASVKLSCTASGFNIQNTYIHWVKQRPEQGLEWIGKIDPANGDTKYAPTFQGKATITADTSSNTAYLQLSSLTPEDTAIYYCARYRDYLFYYALGYWGQGTSVTVSS
VL: DIVMTQSAPSVPVTPGESVSISCRSSKSLLHSNGNTYLYWFLQRPGQSPQLLIYRMSNLASGVPDRFSGSGSGTAFTLRISRVEAEDVGVYYCMQHLEYPYTFGGGTKLEIK
notes: also called 12G8 (as full antibody)
- EC50 (read off the curve) [2]: ~0.7 nM
- binding result (NKG2E protein): no binding (tested: 66.67 nM)
- Kd [5]: 0.0104 nM
- koff [5]: 1.04e-05 s⁻¹
- kon [5]: 995000 M⁻¹ s⁻¹

B6: M15 (antibody, V domains shown)
VH: QVQLQQSVAELVRPGASVKLSCTASGFNIQNTYIHWVKQRPEQGLEWIGKIDPANADTKYAPTFQGKATITADTSSNTAYLQLSSLTPEDTAIYYCARYRDYLFYYALGYWGQGTSVTVSS
VL: DIVMTQSAPSVPVTPGESVSISCRSSKSLLHSNANTYLYWFLQRPGQSPQLLIYRMSNLASGVPDRFSGSGSGTAFTLRISRVEAEDVGVYYCMQHLEYPYTFGGGTKLEIK
notes: parent of the humanized M15-1 to M15-15; also called M15 antibody; Mpb416-M15
- EC50 (read off the curve) [7]: ~0.8 nM
- EC50 (read off the curve) [8]: ~0.8 nM

B7: M15-5 (antibody, V domains shown)
VH: QVQLVQSGAEVKKPGASVKVSCKASGFNIQNTYIHWVKQAPGQGLEWIGKIDPANADTKYAPTFQGRATITADTSTNTAYLELSSLRSEDTAVYYCARYRDYLFYYALGYWGQGTTVTVSS
VL: DIVMTQSPLSLPVTPGEPASISCRSSKSLLHSNANTYLYWYLQKPGQSPQLLIYRMSNLASGVPDRFSGSGSGTDFTLKISRVEAEDVGVYYCMQHLEYPYTFGQGTKLEIK
notes: Humanized; also called humanized NKG2A antibody
- EC50 (read off the curve) [7]: ~1 nM
- Kd [6]: < 0.0104 nM
- koff [6]: < 1e-05 s⁻¹
- kon [6]: 958000 M⁻¹ s⁻¹

B8: 2F10-2 (scFv clone) (scFv, V domains shown)
VH: QVQLQQSVAELVRPGASVKLSCTASGFNIKNAYVHWVKQRPEQGLEWIGQIDPANGNTKYAPKFQAKATITADTSSNTVYLQLSSLTSEDTAVYYCARSYLGGQYYFDYSGQGTTLTVSS
VL: DILMTQSPSSMYASLGERVTITCKASQDINSYLSWFQQKPGKSPKTLIYRANRLVDGVPSRFSGSGSGQDYSLTISSLEYEDMGIYYCLQYDEFPLTFGAGTKLEIK
notes: scFv
- binding result [9]: binds
- OD450 nm reading ratio NKG2A/CD94-ECD-Fc / NKG2C/CD94-ECD-Fc [10]: 4
